# Measured values taken from patent US20210095032A1 (SALUBRIS CHENGDU BIOTECH, published 2021).
# Like-named read-outs stand apart in the source and are kept apart here.
# B1: huD2A4-V6 (antibody, human IgG1, kappa, V domains shown)
# VH: EVQLVESGGGLVQPGGSLRLSCAASGFTFSSYTMSWVRQAPGKGLEWVSTISGGGSNTYYPDSVKGRFTISRDNSKNTLYLQMNSLRAEDTAVYYCARQAFYSNYWYFDVWGKGTTVTVSS
# VL: DIQMTQSPSSVSASVGDRVTITCLASQTIGTWLAWYQQKPGKAPKLLIYAATSLADGVPSRFSGSGSGTDFTLTISSLQPEDFATYYCQQVSSIPWTFGGGTKVEIKR
# notes: Humanized D2A4, human IgG1/kappa
# B2: Nivolumab (OPDIVO®) (antibody, V domains shown)
# VH: QVQLVESGGGVVQPGRSLRLDCKASGITFSNSGMHWVRQAPGKGLEWVAVIWYDGSKRYYADSVKGRFTISRDNSKNTLFLQMNSLRAEDTAVYYCATNDDYWGQGTLVTVSS
# VL: EIVLTQSPATLSLSPGERATLSCRASQSVSSYLAWYQQKPGQAPRLLIYDASNRATGIPARFSGSGSGTDFTLTISSLEPEDFAVYYCQQSSNWPRTFGQGTKVEIK
# B3: huD2H3-V13 (antibody, human IgG1, kappa, V domains shown)
# VH: EVQLVQSGAEVKKPGSSVKVSCKSSGYTFTNYWMHWVRQAPGQGLEWIGAIFPRNSETNYNQKFKARATLTADTSTSTAYMELSSLRSEDTAVYFCTRNRYGLDYWGQGTLVTVSS
# VL: DIVMTQSPDSLAVSLGERATINCRASESVSLHGTRLMHWYQQKPGQPPKLLIYLGSNLESGVPDRFSGSGSGTDFTLTISSLQAEDVAVYYCQQSIEDPWTFGQGTKLEIKR
# notes: Humanized D2H3, human IgG1/kappa; No EC50 is printed for this variant; it appears only in the sentences about the group
# B4: mouse anti-PD-1 monoclonal antibody D2A4 (antibody, V domains shown)
# VH: EVKLVESGGGLVKPGGSLKLSCAASGFTFSSYTMSWVRQTPAKRLEWVATISGGGSNTYYPDSVKGRFTISRDNARNTLYLQMSSLRSEDTAMYYCARQAFYSNYWYFDVWGAGTTVTVSS
# VL: DIQMTQSPASQSASLGESVTITCLASQTIGTWLAWYQQTPGKSPQLLIYAATSLADGVPSRFSGSGSGTKFSFKISSLQAEDFASYYCQQVSSIPWTFGGGTKLEIR
# notes: Mouse antibody purified from a hybridoma; also called Mouse D2A4; mouse D2A4
# B5: chimeric D2A4 antibody (antibody, human IgG1, kappa, V domains shown)
# VH: B4 VH
# VL: DIQMTQSPASQSASLGESVTITCLASQTIGTWLAWYQQTPGKSPQLLIYAATSLADGVPSRFSGSGSGTKFSFKISSLQAEDFASYYCQQVSSIPWTFGGGTKLEIRR
# notes: Mouse variable domains cloned in frame to human IgG1 and kappa constant regions; also called chD2A4; ChD2A4
# B6: mouse anti-PD-1 monoclonal antibody D2H3 (antibody, V domains shown)
# VH: EVQLQQSGTVLARPGASVKMSCKSSGYTFTNYWMHWVKQRPGQGLEWIGAIFPRNSETNYNQKFKAKAKLTAVTSASTAYMEVSSLTSEDSAVYFCTRNRYGLDYWGQGTSVTVSS
# VL: DIVLTQSPGFLAVSLGQRATISCRASESVSLHGTRLMHWYHQKPGQPPKLLISLGSNLESGVPARFSGSGSETDFTLNIHPVEEEDAATYFCQQSIEDPWTFGGGTKLEIK
# notes: Mouse antibody purified from a hybridoma; also called Mouse D2H3; mouse D2H3
# Experiments:
# [1] = molecular target: T1, biotin-labeled human PD-1 Fc protein (human, biotin-labeled (site not stated)); assay: competition ELISA, antibody + biotin human PD-1 Fc on coated Nivolumab (competitor Nivolumab)
# T1 construct: also called PD-1-Fc-biotin
# Protocol: (§1) The next day, plates were washed with wash buffer, and blocked with 5% non-fatty milk in PBST for 2 hours at 37° C. […] Plates were finally washed using wash buffer. TMB was added and the reaction was stopped using 1M H₂SO₄, and the absorbance was read at 450 nm. Data were analyzed using Graphpad Prism software and IC₅₀ values were reported.
# [2] = molecular target: T2, cynomolgus monkey PD-1-his protein (Acro biosystems, #PD-1-05223) (cynomolgus monkey, UniProt B0LAJ3 25-170); assay: SPR (Biacore), antibody captured, cynomolgus PD-1-his flowed
# T2 construct: Bought protein; also called Cynomolgus PD-1; Cynomolgus PD1
# Text: (§2) Briefly, goat anti-mouse IgG (GE healthcare, Cat #BR100839, Human Antibody Capture Kit) was covalently linked to a CMS chip (carboxy methyl dextran coated chip) via primary amines, using a standard amine coupling kit (GE healthcare, Pittsburgh, Pa., USA) provided by Biacore. Un-reacted moieties on the biosensor surface were blocked with ethanolamine. […] Then, recombinant human PD-1-his (Sino biological, #10377-H08H) or cynomolgus monkey PD-1-his protein (Acro biosystems, #PD-1-05223) in HBS EP buffer (provided by Biacore) was flowed onto the chip at a flow rate of 30 μL/min. The antigen-antibody association kinetics was followed for 2 minutes and the dissociation kinetics was followed for 10 minutes. The association and dissociation curves were fit to a 1:1 Langmuir binding model using BIA evaluation software.
# [3] = molecular target: T3, recombinant human PD-1-his (Sino biological, #10377-H08H) (human, UniProt Q15116 25-167); assay: SPR (Biacore), antibody captured, human PD-1-his flowed
# T3 construct: Bought protein; also called Human PD-1-his protein; not shown: his tag
# Text: as §2
# [4] = molecular target: T1, biotin-labeled human PD-1 Fc protein; assay: capture ELISA, antibody captured on plate, biotin-labeled human PD-1 Fc in solution
# Protocol: (§3) Plates were washed 4 times with wash buffer (PBS+0.05% Tween-20, PBST) and then blocked with 200 μl/well blocking buffer (5% w/v non-fatty milk in PBST) for 2 hours at 37° C. […] After a final wash, plates were incubated with 100 μl/well ELISA substrate TMB (Innoreagents). The reaction was stopped in 15 minutes at 25° C. with 50 μl/well 1M H₂SO₄, and the absorbance was read at 450 nm. Data were analyzed using Graphpad Prism software and EC₅₀ values were reported.
# [5] = molecular target: T1, biotin-labeled human PD-1 Fc protein; assay: as above; remark: listed apart in the source
# Protocol: as §3
# [6] = molecular target: T4, human PD-1 on PD-1 Effector Cell Line (Genscript, GS-J2/PD-1) (human, UniProt Q15116 25-288); assay: cell-based or functional assay
# [7] = molecular target: T1, biotin-labeled human PD-1 Fc protein; assay: competition ELISA, antibody + biotin human PD-1-Fc on coated human PD-L1-Fc (competitor PD-L1-Fc)
# Protocol: (§4) The next day, plates were washed with wash buffer (PBS+0.05% Tween-20, PBST), and blocked with 5% non-fatty milk in PBST for 2 hours at 37° C. Plates were then washed again using wash buffer.
# (§5) After incubation at 37° C. for 40 minutes, plates were washed for 4 times using wash buffer. […] Plates were washed again using wash buffer. Finally, TMB was added and the reaction was stopped using 1M H₂SO₄, and the absorbance was read at 450 nm. Data were analyzed using Graphpad Prism software and IC₅₀ values were reported.
# [8] = molecular target: T1, biotin-labeled human PD-1 Fc protein; assay: capture ELISA, antibody captured on plate, biotin-labeled human PD-1 Fc in solution; remark: listed apart in the source
# Protocol: as §3
# [9] = molecular target: T1, biotin-labeled human PD-1 Fc protein; assay: as above; remark: listed apart in the source
# Protocol: as §3
# [10] = molecular target: T1, biotin-labeled human PD-1 Fc protein; assay: as above; remark: listed apart in the source
# Protocol: as §3
# [11] = molecular target: T1, biotin-labeled human PD-1 Fc protein; assay: as above; remark: listed apart in the source
# Protocol: as §3
# [12] = molecular target: T1, biotin-labeled human PD-1 Fc protein; assay: as above; remark: listed apart in the source
# Protocol: as §3
# [13] = molecular target: T1, biotin-labeled human PD-1 Fc protein; assay: competition ELISA, antibody + biotin human PD-1 Fc on coated Nivolumab (competitor Nivolumab); remark: listed apart in the source
# Protocol: as §1
# [14] = molecular target: T1, biotin-labeled human PD-1 Fc protein; assay: capture ELISA
# [15] = molecular target: T4, human PD-1 on PD-1 Effector Cell Line …; assay: cell-based or functional assay; remark: listed apart in the source
# [16] = molecular target: T1, biotin-labeled human PD-1 Fc protein; assay: competition ELISA, antibody + biotin human PD-1-Fc on coated human PD-L1-Fc (competitor PD-L1-Fc); remark: listed apart in the source
# Protocol: as §4, §5
# [17] = molecular target: T1, biotin-labeled human PD-1 Fc protein; assay: competition ELISA, antibody + biotin human PD-1 Fc on coated Nivolumab (competitor Nivolumab); remark: listed apart in the source
# Protocol: as §1
# [18] = molecular target: T1, biotin-labeled human PD-1 Fc protein; assay: competition ELISA, antibody + biotin human PD-1-Fc on coated human PD-L1-Fc (competitor PD-L1-Fc); remark: listed apart in the source
# Protocol: as §4, §5
# [19] = molecular target: T1, biotin-labeled human PD-1 Fc protein; assay: capture ELISA, antibody captured on plate, biotin-labeled human PD-1 Fc in solution; remark: listed apart in the source
# Protocol: as §3
# [20] = molecular target: T3, recombinant human PD-1-his (Sino …); assay: SPR (Biacore T200), antibody captured, PD-1-his flowed, 1:1 Langmuir fit
# Text: as §2
# [21] = molecular target: T2, cynomolgus monkey PD-1-his protein …; assay: as above
# Text: as §2
# [22] = molecular target: T4, human PD-1 on PD-1 Effector Cell Line …; assay: cell-based or functional assay; remark: listed apart in the source
Binder,IC50 [1],Kd [2],Kd [3],EC50 [4],EC50 [5],"Cell-based functional assay (EC50, nM) [6]",IC50 [7],EC50 [8],EC50 [9],EC50 [10],EC50 [11],EC50 [12],IC50 [13],"Cell-based functional reporter assay (IC50, nM) [15]",IC50 [16],IC50 [17],IC50 [18],EC50 [19],Kd [20],koff [20],further results
B1,0.49 nM,6.43 nM,3.06 nM,0.27 nM,0.999 ng/mL,7.6 nM,1.69 nM,,,,,,,,,,,,,,
B2,,,,0.45 nM,0.268 ng/mL,,0.42 nM,0.351 ng/mL,0.27 ng/mL,0.365 ng/mL,0.21 nM,1.37 ng/mL,3.79 nM,,,,,,,,
B3,,,,,,,,,,,,,,,,,,,,,binding result [14]: binds
B4,0.33 nM,6.57 nM,2.55 nM,0.13 nM,,6.18 nM,1.51 nM,0.281 ng/mL,,,0.19 nM,,2.22 nM,6.18 nM,1.51 nM,0.33 nM,0.17 nM,0.13 nM,2.55 nM,0.000401 s⁻¹,"kon [20]: 157000 M⁻¹ s⁻¹; Kd [21]: 6.57 nM; koff [21]: 0.000793 s⁻¹; kon [21]: 121000 M⁻¹ s⁻¹; Reporter Activation (EC50, nM), human PD-1 cell (NFAT-luc)/human PD-L1 cell [22]: 8.1 nM"
B5,0.35 nM,,,0.24 nM,0.773 ng/mL,9.46 nM,1.71 nM,0.681 ng/mL,,,,,,9.46 nM,1.71 nM,0.35 nM,,0.24 nM,,,
B6,0.21 nM,1.46 nM,0.373 nM,0.17 nM,,8.48 nM,0.89 nM,,0.18 ng/mL,0.229 ng/mL,0.15 nM,0.388 ng/mL,0.76 nM,8.48 nM,0.89 nM,0.21 nM,0.19 nM,0.17 nM,0.373 nM,0.000122 s⁻¹,"kon [20]: 326000 M⁻¹ s⁻¹; Kd [21]: 1.46 nM; koff [21]: 0.000308 s⁻¹; kon [21]: 211000 M⁻¹ s⁻¹; Reporter Activation (EC50, nM), human PD-1 cell (NFAT-luc)/human PD-L1 cell [22]: 3.02 nM"
